Substitutions are numbered along the chain they refer to.
B1: UGT76G1var58: UGT76G1 variant, mutations S357C_S375M_N409R_Q425E (protein, UniProt Q6VAB4 1-458, looked up, variant S357C S375M N409R Q425E)
UDP-glycosyltransferase 76G1: MENKTETTVRRRRRIILFPVPFQGHINPILQLANVLYSKGFSITIFHTNFNKPKTSNYPHFTFRFILDNDPQDERISNLPTHGPLAGMRIPIINEHGADELRRELELLMLASEEDEEVSCLITDALWYFAQSVADSLNLRRLVLMTSSLFNFHAHVSLPQFDELGYLDPDDKTRLEEQASGFPMLKVKDIKSAYSNWQILKEILGKMIKQTKASSGVIWNSFKELEESELETVIREIPAPSFLIPLPKHLTASSSSLLDHDRTVFQWLDQQPPSSVLYVSFGSTSEVDEKDFLEIARGLVDSKQSFLWVVRPGFVKGSTWVEPLPDGFLGERGRIVKWVPQQEVLAHGAIGAFWTHCGWNSTLESVCEGVPMIFMDFGLDQPLNARYMSDVLKVGVYLENGWERGEIARAIRRVMVDEEGEYIRENARVLKQKADVSLMKGGSSYESLESLVSYISSL
B2: UGT76G1var69: UGT76G1 variant, mutations S274G_I295T_I335V_L379A (protein, UniProt Q6VAB4 1-458, looked up, variant S274G I295T I335V L379A)
UDP-glycosyltransferase 76G1: B1 UDP-glycosyltransferase 76G1 with S274G, I295T, I335V, C357S, M375S, L379A, R409N, E425Q
B3: UGT76G1var75: UGT76G1 variant, mutations F41L_A239I_Q266S_S375M_P382M (protein, UniProt Q6VAB4 1-458, looked up, variant F41L A239I Q266S S375M P382M)
UDP-glycosyltransferase 76G1: B1 UDP-glycosyltransferase 76G1 with F41L, A239I, Q266S, C357S, P382M, R409N, E425Q
B4: UGT76G1var65: UGT76G1 variant, mutations A33G_A239V_P382M_Q425E (protein, UniProt Q6VAB4 1-458, looked up, variant A33G A239V P382M Q425E)
UDP-glycosyltransferase 76G1: B1 UDP-glycosyltransferase 76G1 with A33G, A239V, C357S, M375S, P382M, R409N
B5: UGT76G1var72: UGT76G1 variant, mutations T284L_D301N_K303G_S375R (protein, UniProt Q6VAB4 1-458, looked up, variant T284L D301N K303G S375R)
UDP-glycosyltransferase 76G1: B1 UDP-glycosyltransferase 76G1 with T284L, D301N, K303G, C357S, M375R, R409N, E425Q
B6: UGT76G1var63: UGT76G1 variant, mutations F314S_R334H_Q342K_L379G (protein, UniProt Q6VAB4 1-458, looked up, variant F314S R334H Q342K L379G)
UDP-glycosyltransferase 76G1: B1 UDP-glycosyltransferase 76G1 with F314S, R334H, Q342K, C357S, M375S, L379G, R409N, E425Q
B7: UGT76G1var74: UGT76G1 variant, mutations I295T_I373L_S375R_Y397Q_Q432E (protein, UniProt Q6VAB4 1-458, looked up, variant I295T I373L S375R Y397Q Q432E)
UDP-glycosyltransferase 76G1: B1 UDP-glycosyltransferase 76G1 with I295T, C357S, I373L, M375R, Y397Q, R409N, E425Q, Q432E
B8: UGT76G1var60: UGT76G1 variant, mutations E231A_L243A_V279I_S357N (protein, UniProt Q6VAB4 1-458, looked up, variant E231A L243A V279I S357N)
UDP-glycosyltransferase 76G1: B1 UDP-glycosyltransferase 76G1 with E231A, L243A, V279I, C357N, M375S, R409N, E425Q
B9: UGT76G1var71: UGT76G1 variant, mutations I295M_V300A_K393G_Q432E (protein, UniProt Q6VAB4 1-458, looked up, variant I295M V300A K393G Q432E)
UDP-glycosyltransferase 76G1: B1 UDP-glycosyltransferase 76G1 with I295M, V300A, C357S, M375S, K393G, R409N, E425Q, Q432E
B10: UGT76G1var76: UGT76G1 variant, mutations F22Y_A239I_L246F_I295M_R334K (protein, UniProt Q6VAB4 1-458, looked up, variant F22Y A239I L246F I295M R334K)
UDP-glycosyltransferase 76G1: B1 UDP-glycosyltransferase 76G1 with F22Y, A239I, L246F, I295M, R334K, C357S, M375S, R409N, E425Q
B11: UGT76G1var61: UGT76G1 variant, mutations I43V_F265I_Q266S_L379A (protein, UniProt Q6VAB4 1-458, looked up, variant I43V F265I Q266S L379A)
UDP-glycosyltransferase 76G1: B1 UDP-glycosyltransferase 76G1 with I43V, F265I, Q266S, C357S, M375S, L379A, R409N, E425Q
B12: UGT76G1var73: UGT76G1 variant, mutations F22Y_D301N_R334H_Q342E_V396F (protein, UniProt Q6VAB4 1-458, looked up, variant F22Y D301N R334H Q342E V396F)
UDP-glycosyltransferase 76G1: B1 UDP-glycosyltransferase 76G1 with F22Y, D301N, R334H, Q342E, C357S, M375S, V396F, R409N, E425Q
B13: UGT76G1var62: UGT76G1 variant, mutations L243P_P272A_V394I_V396F (protein, UniProt Q6VAB4 1-458, looked up, variant L243P P272A V394I V396F)
UDP-glycosyltransferase 76G1: B1 UDP-glycosyltransferase 76G1 with L243P, P272A, C357S, M375S, V394I, V396F, R409N, E425Q
B14: UGT76G1var64: UGT76G1 variant, mutations F22L_A239I_R334H_I407V (protein, UniProt Q6VAB4 1-458, looked up, variant F22L A239I R334H I407V)
UDP-glycosyltransferase 76G1: B1 UDP-glycosyltransferase 76G1 with F22L, A239I, R334H, C357S, M375S, I407V, R409N, E425Q
B15: UGT76G1var67: UGT76G1 variant, mutations E224D_F314S_S375R_Y397E (protein, UniProt Q6VAB4 1-458, looked up, variant E224D F314S S375R Y397E)
UDP-glycosyltransferase 76G1: B1 UDP-glycosyltransferase 76G1 with E224D, F314S, C357S, M375R, Y397E, R409N, E425Q
B16: UGT76G1var59: UGT76G1 variant, mutations I335V_K393G_V394I_Y397Q (protein, UniProt Q6VAB4 1-458, looked up, variant I335V K393G V394I Y397Q)
UDP-glycosyltransferase 76G1: B1 UDP-glycosyltransferase 76G1 with I335V, C357S, M375S, K393G, V394I, Y397Q, R409N, E425Q
B17: UGT76G1var66: UGT76G1 variant (round 1), mutations F265L_V310I_V366I_A385T (protein, UniProt Q6VAB4 1-458, looked up, variant F265L V310I V366I A385T)
UDP-glycosyltransferase 76G1: B1 UDP-glycosyltransferase 76G1 with F265L, V310I, C357S, V366I, M375S, A385T, R409N, E425Q
B18: UGT76G1var4: UGT76G1 variant, mutations E224D_E231A_F265I (protein, UniProt Q6VAB4 1-458, looked up, variant E224D E231A F265I)
UDP-glycosyltransferase 76G1: B1 UDP-glycosyltransferase 76G1 with E224D, E231A, F265I, C357S, M375S, R409N, E425Q
B19: UGT76G1var68: UGT76G1 variant, mutations Q342K_G348P_I373L_Y397E (protein, UniProt Q6VAB4 1-458, looked up, variant Q342K G348P I373L Y397E)
UDP-glycosyltransferase 76G1: B1 UDP-glycosyltransferase 76G1 with Q342K, G348P, C357S, I373L, M375S, Y397E, R409N, E425Q
B20: UGT76G1var70: UGT76G1 variant, mutations E224A_I295T_V300A_G348P (protein, UniProt Q6VAB4 1-458, looked up, variant E224A I295T V300A G348P)
UDP-glycosyltransferase 76G1: B1 UDP-glycosyltransferase 76G1 with E224A, I295T, V300A, G348P, C357S, M375S, R409N, E425Q

test: Directed evolution of UGT76G1, conversion of Rebaudioside D to Rebaudioside M (round 1); format: biochemical; details: 0.5 mM Rebaudioside D, 2.5 mM UDP-Glucose, 100 μL fresh lysate, 30° C., pH 7.2
Summary of the method: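 UGT76G1 variants carrying 3-5 designed mutations were expressed in E. coli BL21(DE3) (pET30a+, 44 h at 20° C) and lysed. Lysate was reacted with 0.5 mM Reb D, 2.5 mM UDP-glucose, 3 mM MgCl2 in 50 mM phosphate pH 7.2 at 30° C; HPLC-CAD sampling at 2, 4, 7, 24 h gave conversion and initial rate.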

Molecule | Conversion Reb D to Reb M after 24 h (%) | initial rate (Reb M area/min)
B1 | 7.5 | 2.2E+06
B2 | 24.7 | 8.3E+06
B3 | 0.8 | −1.3E+05
B4 | 1.2 | 3.3E+05
B5 | 19.2 | 9.1E+06
B6 | 3.4 | 1.2E+06
B7 | 0.6 | 9.6E+04
B8 | 0.5 | 9.5E+04
B9 | 42.9 | 2.1E+07
B10 | 2.6 | 7.2E+05
B11 | 6.4 | 2.0E+06
B12 | 0.8 | 8.7E+05
B13 | 0.1 | 3.4E+04
B14 | 0.3 | 3.1E+04
B15 | −2.1 | −5.6E+05
B16 | 33.0 | 2.7E+07
B17 | 0.8 | 3.7E+05
B18 | 14.7 | 8.6E+06
B19 | −1.4 | −1.1E+05
B20 | 24.0 | 8.4E+06
